Test results as given in patent US20220411530A1 (NANTONG YICHEN BIOPHARMA, published 2022).

Legend:
[1] = target: T1, PSMA on the surface of LnCap cells (human, UniProt Q04609 1-750); assay: cell-based or functional assay
[2] = target: T2, CD3 on Jurkat (CD3+) cells (Homo sapiens (Human), UniProt P07766 23-207; P04234 22-171; P09693 23-182); assay: flow cytometry on Jurkat (CD3+) cells
T2 construct: also called Jurkat T cells

[3] = target: T1, PSMA on the surface of LnCap cells; assay: flow cytometry on LnCap (PSMA+) cells

T1 sequence (Q04609 whole entry): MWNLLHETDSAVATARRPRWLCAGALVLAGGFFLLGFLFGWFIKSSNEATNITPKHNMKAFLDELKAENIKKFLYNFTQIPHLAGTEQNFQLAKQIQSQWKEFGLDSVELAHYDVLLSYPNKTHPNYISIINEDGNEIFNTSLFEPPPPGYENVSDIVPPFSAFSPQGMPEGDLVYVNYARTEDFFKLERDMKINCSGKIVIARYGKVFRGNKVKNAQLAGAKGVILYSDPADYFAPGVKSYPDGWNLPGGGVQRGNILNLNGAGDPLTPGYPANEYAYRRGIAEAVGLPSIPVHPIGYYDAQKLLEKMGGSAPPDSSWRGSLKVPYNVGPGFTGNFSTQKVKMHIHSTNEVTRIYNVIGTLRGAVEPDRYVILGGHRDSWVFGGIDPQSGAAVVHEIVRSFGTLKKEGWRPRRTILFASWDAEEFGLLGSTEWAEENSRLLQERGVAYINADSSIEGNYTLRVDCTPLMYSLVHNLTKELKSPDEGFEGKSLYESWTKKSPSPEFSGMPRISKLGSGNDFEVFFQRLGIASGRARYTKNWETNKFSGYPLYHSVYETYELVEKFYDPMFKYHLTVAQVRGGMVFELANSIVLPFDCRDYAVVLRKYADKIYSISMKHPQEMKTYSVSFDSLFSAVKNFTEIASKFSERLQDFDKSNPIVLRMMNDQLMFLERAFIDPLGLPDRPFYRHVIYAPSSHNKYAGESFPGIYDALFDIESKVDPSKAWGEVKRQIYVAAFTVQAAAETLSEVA
T2 sequence (P07766 23-207 limits assumed, form in doubt, chain 1 of 3): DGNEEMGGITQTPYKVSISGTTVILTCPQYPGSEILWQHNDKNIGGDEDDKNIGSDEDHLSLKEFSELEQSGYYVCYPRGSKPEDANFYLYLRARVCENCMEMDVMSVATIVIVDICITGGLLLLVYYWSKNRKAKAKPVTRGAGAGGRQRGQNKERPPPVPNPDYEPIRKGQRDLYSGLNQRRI
T2 sequence (P04234 22-171 limits assumed, form in doubt, chain 2 of 3): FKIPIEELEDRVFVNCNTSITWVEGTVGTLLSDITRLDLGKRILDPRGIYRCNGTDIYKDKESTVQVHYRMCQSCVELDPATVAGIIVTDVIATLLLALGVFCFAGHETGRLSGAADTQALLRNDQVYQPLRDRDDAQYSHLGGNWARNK
T2 sequence (P09693 23-182 limits assumed, form in doubt, chain 3 of 3): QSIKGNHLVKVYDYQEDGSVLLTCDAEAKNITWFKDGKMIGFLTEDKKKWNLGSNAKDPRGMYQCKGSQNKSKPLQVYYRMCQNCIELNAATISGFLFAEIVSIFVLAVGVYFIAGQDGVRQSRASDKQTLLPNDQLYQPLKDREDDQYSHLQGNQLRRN

B1: aCD3-aPSMA bispecific antibody (bispecific antibody)
chain 1: not shown
chain 2: EVQLVESGGGLVQPGGSLRLSCAASGFTFNTYAMNWVRQAPGKGLEWVARIRSKYNNYATYYADSVKDRFTISRDDSKNTLYLQMNSLRAEDTAVYYCVRHGNFGNSYVSWFAYWGQGTLVTVSS
notes: also called the bispecific antibody
LDH Killing EC50 (pM) [1]: 184 pM | EC50 [2]: 0.51 nM | EC50 [3]: 0.05 nM
